Reference: IntAct's records for PubMed 28533443

B1: Complement factor H-related protein 1 (Homo sapiens), Q03591 (parent)
chain: MWLLVSVILISRISSVGGEATFCDFPKINHGILYDEEKYKPFSQVPTGEVFYYSCEYNFVSPSKSFWTRITCTEEGWSPTPKCLRLCFFPFVENGHSESSGQTHLEGDTVQIICNTGYRLQNNENNISCVERGWSTPPKCRSTDTSCVNPPTVQNAHILSRQMSKYPSGERVRYECRSPYEMFGDEEVMCLNGNWTEPPQCKDSTGKCGPPPPIDNGDITSFPLSVYAPASSVEYQCQNLYQLEGNKRITCRNGQWSEPPKCLHPCVISREIMENYNIALRWTAKQKLYLRTGESAEFVCKRGYRLSSRSHTLRTTCWDGKLEYPTCAKR
partner: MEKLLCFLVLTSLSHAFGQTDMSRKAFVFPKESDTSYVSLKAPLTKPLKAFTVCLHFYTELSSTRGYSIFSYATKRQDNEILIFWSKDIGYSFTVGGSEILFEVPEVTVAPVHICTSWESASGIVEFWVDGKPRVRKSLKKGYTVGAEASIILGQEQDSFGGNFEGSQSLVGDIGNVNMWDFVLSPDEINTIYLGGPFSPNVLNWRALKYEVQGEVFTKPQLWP

Variants of: B1
Conditions: with crp_human CRP

| effect of a mutation on the interaction | Variant |
| --- | --- |
| with no effect | H157Y;L159V;E175Q |
